Reference: the DeepSol protein solubility set

Assay: soluble on expression in E. coli; label from the status in PepcDB or PDB records

Row | Sequence | soluble on expression in E. coli
1 | MGSDKIHHHHHHLTLMGLSVTDYDSEMPDATEPGTTERSLVELLLAEGPSTRLELQAKLGVSRPTLSSAVNKLLSLGLLQEQGTAAYGAGRNGRPQALLAPNRAMGAAVGIELGKAQVAVTILAIDGTVHAQKVTSTSPGTTLQRRLNIALGSVGTFISSNILNPESVLGVGVGVSGLHPDARPAGGSALVDPPGAKLDKLRTLLAAPVVWDNNTRMATFRHLGGSGLDSPGAVLYVVLSAGVSAGIVDGGEVLRGRGAAGELGHVCLDPEGPVCGCGSRGCLEAYVGVEAVLRSARGKGATVADLEELAAVVQSGDADALAVIGLVGRMLGIGLNNAAMLVDPRRIILTGPLLSLGPALVSAATEELRIRRMAVTLGVPDVVAEIGSPFDSSHGAALTALRRWGPGFMGMLTQNGIATTG | not soluble
2 | MSSDDEIYNENNDLDEEFSDDMDQQSGSSGESQGKANYEILDPTALESDMSKTISEVQAILQVEPGICRILLHKFKWNKDRLLDKFYEHSDTTEFLAEAQVIPKTSSSEEAAGSSAPPPGGDAECDVCCSMTRLSGLACAHRACDECWKAYLTEKIVDVGQSEIECMMMDCKLLIEDEKVMSYITDPFVIAAYRKLIISSYVETNSQLKWCPGAGCGKAVKGEPSDREPAVCTCGERFCFACAQDWHDPLSCRHMKMWRKKCSDDSETLNWINANTKPCPKCSVTIEKNGGCNHMSCKSSSCRYEFCWLCLGDWKNHAQCNRYVEDDNKTDSRSLSRKNLQRYLFYYNRFMAHQNSMKLEGKLYAKVEVKMDLMQALSMSWIEVQFLRRAVDALCECRRTLKYAYAFAYYLEANNMTTLFETNQSDLELATEQLSGMLEGDLEDNDLAELKRKVQDKYRYVELRRKKMLDHCAEGVELDSWVFCE | not soluble
3 | GMKSAPDWIAHPDTPYLLIDEAKLKSNINYLKQRVESLGSHLRPHLKTLRTLEAAGYLLDSKSAPATVSTLAEAEAYAKAGYTDLLYAVGIAPAKLKRVAALRQQGINLHILLDNITQAQAVVDYAAEFGQDFSVFIEIDSDDHRGGIKPSDSKLLTIAKTLGEHFTGLMTHAGGSYACNTEQGLKNFAKQECDAVRIARNNLETAGIHCAITSVGSTPTAHFGEDFSDISEVRAGVYTTFDLVMKNIGVCDFSHIAMSVVTTVIGHNKEKNWLLTDSGWMALSRDSGTAGQNRDFGYGQVCKIDGSVLDGLCVNSTSQEHGVIELSDAYQLEDFPVGHQLRIMPNHACATAAMHPVYHVLMSDGSHNTWQRITGW | soluble
4 | MKFYNREKELNYLKTYCQLDPNSILFVYGPKSSGKSTVMRRVIKELEDSNIVFFYYNLRKYATYSKEEFLRVFFEKSEKKYLLNKLELNLGVFKFGVEENFDFNNLKLNDVFAKINESINAVVEDGKKPVLIIDELQKLKNIYFNGGKSLLNELFNLFVSLTKMEHLCHVICLTSDTLFIEEIYQSSTLENTSKYYLIDWLRKGTIRNILKEEGFSEEEINYCLDYLSLPYEIVDLIENKKLGLSVEETIRQWINIEKDKIKYLIDTTDLDEEELYKVLSKFKDKIKISYEKEVKKEEMKYFKFLIKNEILFYDVINGIIKPTSVKKWYAIREILK | not soluble
5 | GHMAIQRRIRRVKTVQMTTNSPIHRSGSVLEPGNWQEYDPFLLLMEDIFERGTFDVHPHRGIETVTYVISGELEHFDSKAGHSTLGPGDVQWMTAGRGVVHKEDPASGSTVHSLQLWVNLPSAYKMTEPRYQNLRSKDMPVRKEEGATIRVFSGSSKGVKAPTKNIVPVTMVEMIVEPGTTVVQDLPGHYNGFLYILEGSGVFGADNIEGKAGQALFFSRHNRGEETELNVTAREKLRLLLYAGEPVNEPVVAYGPFVMNTPEQIREAIRDYQEGRFGR | soluble
6 | TWTYILRQGDLPPGEMQRYEGGPEPVMVCNVDGEFFAVQDTCTHGDWALSDGYLDGDIVECTLHFGKFCVRTGKVKALPACKPIKVFPIKVEGDEVHVDLDNGELK | soluble
7 | MGSDKIHHHHHHGGEDYVQAEQAPMLKIPEGLKTPPYNKEYDVPALGPKANPALVGKNLDIRPPLQVLPMAEGTHVEEGSDNIKIVVESIDNNVDLKQEIFTNLDDFFAKQAIPIRSRDFDKGSIETDWIESREVLESSLWGSDKEYLLRQRYRFDVETRPHGRTANIVIHLVEHEEFYDGKEQKVMLSGEDKQRYTIDMLNSAIAYMSVKREQTIQANRLKQTLGINVDLITPEEGAAYWSAKAAYKQVWDRLRIVLPEMGFEISDMDSAKGLYFIKFTDNSGFWSSLWNNNQLSLKEGSYRLLLEDGDTPDETKIWLRDAEDQPLSNDVVSKVYESLSSLMKEERKLR | not soluble
8 | MKMNPRCTYCLLSRVHFQSKLSTDDEDLISRTIHECLGVMNKHYSPEAVSSRVATKVHRKCYEVLRDSDPYEVTKKLINQAALKVLPAAKEKIYENSPDDGELFKRAVLASVIANYFDFGIMGFDASEDKFEAAFLKYYEQGLDVDDTPEMLGLLQDVVYIADNCGEILFDAIVFDVIKKLGGNITLVVRGGPILTDVTLEEIKEFEIDKKVDRVMTTGSNAVGVLVEEAPAELLDAMKNATLIISKGMANYETLSEHNFGPIAYMLLTKCECVAEDLGLETGLSVAKLMNFPLEHHHHHH | soluble
9 | MYARYAGLIFDMDGTLLDTEPTHRKAWREVLGRYGLRFDEQAMVALNGSPTWLIAQSIIELNHADLDPLSLAREKTDAVKSILLDCVEPLPLVEVVKAWHGRRPMSVGTGSESAIAEALLAHLGLRRYFDAVVAADHVQHHKPAPDTFLLCAQRMGVMPTQCVVFEDADFGLQAARAAGMDAVDVRLL | not soluble
10 | MSLKYKLLVLDLDGTLTNAKKEITLHNREALIRVQQQGVKLILASGRPTFGIVPLADELRMKEFGGFILSYNGGEIIDWSTGEIVYANVLPDEVIPRLYECATRNQLPILTYDRQYIITEYPDDVYVRKEAFLNKMQIYPSTDFLKDIRLPLPKCLIVGEPHRLIPIEAELSVELQGQLSVYRSEPFFLELVPQGIDKAQSLSVLLNKLNMNREEMVAVGDGYNDLSMIQFAGLGVAMGNAQEPVKKAADYITLSNEEDGVAAVVNKFFTKAPEKGEGHHHHHH | soluble
11 | MGSDKIHHHHHHMDRIGIDTWANISAEGWSSLLLGNGASIAIHKEFAYPTLHGIADAKGLLATTAPIFAKLGTTDFEHVLLACWYAEHVNGALGTPSAAISAAYEEVRTALIEAVHSVHPVHADVAADLQRVGAFASAFPTVVSLNYDITLYWAMLLFNAANGSWFKDAFHDGEFQTDWEYLRRPYGHAAGATLVFYPHGSLAVARDYLGDETKLSVGAGAAGDLLGTITRRWASGHYVPVFVSEGTSHQKVAAIRRSHYLTNVYEEVLPALGESLVVYGWSFDERDQHVLAAIAANPPKRMAVSVFTGQPDGDQQAFCLQVLKAVGRSLPGTEVTFFDSRSPGCWNNP | not soluble
12 | MSVQSITESNQPPVICLMGPTASGKTALAMALKDALPCDIVSVDSALIYRDMDIGTAKPTKSELVQYPHRLIDLRDASESYSAADFCRDALVEIAEIRSNGRIPLLVGGTMMYFKSLIEGISPLPTANPEIRQAIEAEALSKGWQAMHDQLAEIDPVSAERIHPNDPQRITRALEVYRLTSNTLTQLTQIKGAKLAGDVLQLAITPRERSTLHERIALRYQQMIDLGFEQEVIKLKSRDDLHQDLPSIRCVGYRQMWQHLEGEFDHDEMIFRGVCATRQLAKRQLTWLRNWPDLHWLTTDDKTNLAQVLSLLEAKH | not soluble
13 | MAYITYQQYLDLYGTCPISEEEFPVYAGLASDMIDSITRYRIVEGGGISALPSILQTLVQKAAAAQVLYFTQIGLETVLTGQAGQSFTVGKVSVSGGALSSTTTKPGALMVSPFALSLLEQTPLMERGVHVCSDRFLNPFWGILEHHHHHH | soluble
14 | MGSDKIHHHHHHMKTKPIDLYILSGFLGSGKSTLLKRLIEQEQARGNKIGVLMNELGEVSVDSSIVPKDTPLKEMLNGCICCTIQGELSAQLQSFIEEYELDVIFIEATGAAHPLEVVEACTHPVFAGQVRVRGVLTVVNARQWIEGKMSIKIKKLMEAQVTFADLIVVNKVDQVTDAQVEQLTTSIKDLNPKAINIPTTFSNLEPVHSERLHHAAAPSSRGSESKAHVHEHLHLRTMAVPIQHPVDRMELLSFLKGIQGQIYRVKGFIHLKESPGLFLFNYAYGDPMFERHRTDQAYAPVLVFIGDDLDHQAIEEGLQQLQQ | not soluble
15 | MGLQTYNAKRSFDKTPEPKGTKAEKPGSSFVIQKHDARRLHYDFRLEMDGVLKSWAVTRGPSLDPEDKRLAVHVEDHPLSYGDFEGVIPKGQYGGGTVIVWDRGIWQPIGDAGKGYRKGHLEFELEGEKLKGRWHLVRMHGKPGESRENWLLIKGDDEEARHLEHHHHHH | soluble
16 | MSLGSMGFIESEVAVVYGRIVEGFRAPYKEDLYFKTVIVPGFSDGHMHTQVVDAGLEPSRVWSNSYEWLETRRLRVDEAAVRSDLDLSSRLAAAAFSRSLLEGVTLVAATGRLSANVRGWLSLTSRPRAIFLPTVMDRAGWPSIREVEVEIERLEGLLRDGLAKIGVFVHSLGTAKPESVRRALQTAARRRSIMGMHLSEGLPEAGRLVDVLGRGPYPARIVAVHCMEVEDLPTGVRCVSCPASNQILYRRTRPTLEGVDGFGSDWPLLIGTIARHLPLINKLYPGRLQEILYKATIGGYRAYLALHDGDFVAYDASLEDVLAGRALPVWVSVAGKPAVVEGRLSGSGYGYGEVLSIIRRLIKEALEKHGDGSLPYIPDVESMYEASLALEGGPRSEGHHHHHH | not soluble
17 | MGSDKIHHHHHHMKFAVSSKGDQVSDTLKSKIQAYLLDFDMELDENEPEIVISVGGDGTLLYAFHRYSDRLDKTAFVGVHTGHLGFYADWVPHEIEKLVLAIAKTPYHTVEYPLLEVIVTYHENEREERYLALNECTIKSIEGSLVADVEIKGQLFETFRGDGLCLSTPSGSTAYNKALGGAIIHPSIRAIQLAEMASINNRVFRTVGSPLLLPSHHDCMIKPRNEVDFQVTIDHLTLLHKDVKSIRCQVASEKVRFARFRPFPFWKRVQDSFIGKGE | not soluble
18 | MGIMPRKVLAIKNFKERFDLLPKLKGVIAEKQPDILVVVGNILKNEALEKEYERAHLARREPNRKVIHENEHYIIETLDKFFREIGELGVKTFVVPGKNDAPLKIFLRAAYEAETAYPNIRVLHEGFAGWRGEFEVIGFGGLLTEHEFEEDFVLKYPRWYVEYILKFVNELKPRRLVTIFYTPPIGEFVDRTPEDPKHHGSAVVNTIIKSLNPEVAIVGHVGKGHELVGNTIVVNPGEFEEGRYAFLDLTQHKIKLEQFS | soluble
19 | MQFWRKQMSEIQHFSQQDIEILGEQTLYEGFFTLKRIQFKHKLFAGGQSGVVTRELLIKGAASAVIAYDPKEDSVILVEQVRIGAAYHPESHRSPWLLELIAGMVEKGEKPEDVALRESEEEAGIQVKNLTHCLSVWDSPGGIVERIHLFAGEVDSAQAKGIHGLAEENEDIKVHVVKREQAYQWMCEGKIDNGIAVIGLQWLQLNYAQLQQSWKRS | not soluble
20 | MKLARFLAKGRVHQGVYREGLLLDEAGEAHRPEDVTWLLPFTPGKILGVALNYADHAEELGLSRPEEPALFWKPNTSLLPHKGVVLYPKGARFVHYEVELAVVVGRPMKRVRAKDALDYVLGYTIANDLVARDYVTNTFRPPIRAKGRDTFLPLGPFLVVEEVEDPQDLWLRAYVNGELRQEGHTSRMLYSVAELLEFISEFMTLEPYDVLLTGTPKGISQVRPGDVMRLEIEGLGALENPIEEEP | soluble
21 | STNLRAWLYQGDHCLESRQSEAGVTRLNGKSPAAVLAEVTTDWREENTPVVMAGMVGSNVGWKVAPYLSVPARFSSIGEQLTSVGDNIWIIPGLCVSHDDNHNVMRGEETQLIGARALAPSSLYVMPGTHCKWVQADSQQINDFRTVMTGELHHLLLNHSLIGAGLPPQENSADAFAAGLERGLNAPAILPQLFEVRASHVLGTLPREQVSEFLSGLLIGAEVASMRDYVTHQHAITLVAGTSLTARYQQAFQAMGCDVAAVAGDTAFQAGIRSIAHAVAN | not soluble
